Data: article PMC3940844

What was measured:
[1] = target: FH-p53 (FLAG- and oligohistidine-tagged human p53) (human) (UniProt P04637); assay: pull-down; competitive GST pull-down: FH-TLP or FH-TBP co-applied with FH-p53 to beads with GST-TBP or GST-TLP; recovered p53 by band intensity
[2] = target: GST-TBP (glutathione S-transferase-tagged human TATA-binding protein) (human) (UniProt P20226); assay: pull-down; GST pull-down with increasing amounts of protein (p53 by the text, GST proteins by the legend); ratio of bound p53 to input by band intensity
Sequence of GST-TBP (glutathione S-transferase-tagged human TATA-binding protein) (human) (P20226 whole entry): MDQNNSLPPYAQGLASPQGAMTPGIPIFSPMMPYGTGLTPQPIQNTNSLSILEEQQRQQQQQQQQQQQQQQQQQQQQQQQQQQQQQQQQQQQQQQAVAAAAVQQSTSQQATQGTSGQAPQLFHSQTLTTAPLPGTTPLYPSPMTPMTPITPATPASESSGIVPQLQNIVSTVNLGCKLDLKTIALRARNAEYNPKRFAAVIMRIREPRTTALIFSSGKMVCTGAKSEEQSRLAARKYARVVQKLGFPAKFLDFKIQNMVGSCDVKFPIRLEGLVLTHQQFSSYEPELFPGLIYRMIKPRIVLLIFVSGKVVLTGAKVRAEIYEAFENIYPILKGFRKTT

p53 recovered on GST-TLP with FH-TBP as competitor, percent of the control experiment [1] [%] | ratio of bound p53 to input at the plateau [2] | Substance
6 | – | FH-TBP (purified competitor in the pull-down) (from UniProt P20226 1-339) (natural protein)
– | 0.5 | FH-p53 (FLAG- and oligohistidine-tagged human p53) (from UniProt P04637 1-393) (natural protein)
